Source: US9096646B2, “CXCR4 receptor compounds” (priority 2008, dated 2015)
“And” between values parts separate entries of the source, which are not always exact repeats. Equal values may be shown once. Read-outs that look alike come from different tables or passages of the source. Values belong to the compound of their own block, whether it stands above or below them. Peptide text beside a SMILES is read from it. * marks the point of attachment. Palmitoyl = CCCCCCCCCCCCCCCC(=O)*

Target: CXCR4 (Homo sapiens, UniProt P61073)
Assay: Chemotaxis assay, effect on SDF1-a (CXCL12) induced migration of CCRF-CEM cells
Assay type: cell-based
Design: a human T-cell ALL line that endogenously expresses CXCR4; endogenous in cells; host or cells: CCRF-CEM (human T-cell ALL line)
Conditions: for activity at 1 µM: CCRF-CEM; for activity at 1 µM / Peak Test Compound / Peak Ratio / AUC (% of vehicle) / Max (% of vehicle): Table 20, i3 loop, CEM cells; for Peak Ratio: peak test compound/peak control
[1] = conc 1.0 uM, read-out: AUC (% of vehicle)
[2] = conc 1.0 uM, read-out: Max (% of vehicle)

Chain of CXCR4 (P61073 whole entry): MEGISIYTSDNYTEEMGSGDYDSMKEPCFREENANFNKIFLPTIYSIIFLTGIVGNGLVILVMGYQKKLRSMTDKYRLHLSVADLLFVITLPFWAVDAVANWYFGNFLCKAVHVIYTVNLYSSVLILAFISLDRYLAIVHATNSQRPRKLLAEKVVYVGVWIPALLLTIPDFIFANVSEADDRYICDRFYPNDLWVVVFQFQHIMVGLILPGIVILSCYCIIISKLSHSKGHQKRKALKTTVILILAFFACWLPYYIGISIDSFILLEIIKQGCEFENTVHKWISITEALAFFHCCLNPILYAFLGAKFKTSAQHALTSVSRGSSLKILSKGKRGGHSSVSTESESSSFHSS

activity at 1 µM [1]: 65.3%
activity at 1 µM [2]: 80.5%
Peak Test Compound (conc 1.0 uM): 1 nM
Peak Ratio (conc 1.0 uM): 1
Compound: CCCCCCCCCCCCCCCC(=O)N[C@@H](CCCCN)C(=O)N[C@@H](CC(C)C)C(=O)N[C@@H](CO)C(=O)N[C@@H](Cc1cnc[nH]1)C(=O)N[C@@H](CO)C(=O)N[C@@H](CCCCN)C(=O)NCC(=O)N[C@@H](Cc1cnc[nH]1)C(=O)N[C@@H](CCC(N)=O)C(=O)N[C@@H](CCCCN)C(=O)N[C@@H](CCCNC(=N)N)C(=O)N[C@@H](CCCCN)C(=O)N[C@@H](C)C(N)=O [Compound 94] (Palmitoyl-KLSHSKGHQKRKA-NH2)

activity at 1 µM [1]: 77.5%
activity at 1 µM [2]: 92.1%
Peak Test Compound (conc 1.0 uM): 1 nM
Peak Ratio (conc 1.0 uM): 1
Compound: CCCCCCCCCCCCCCCC(=O)N[C@@H](CC(C)C)C(=O)N[C@@H](CO)C(=O)N[C@@H](Cc1cnc[nH]1)C(=O)N[C@@H](CO)C(=O)N[C@@H](CCCCN)C(=O)NCC(=O)N[C@@H](Cc1cnc[nH]1)C(=O)N[C@@H](CCC(N)=O)C(=O)N[C@@H](CCCCN)C(=O)N[C@@H](CCCNC(=N)N)C(=O)N[C@@H](CCCCN)C(=O)N[C@@H](C)C(=O)N[C@@H](CC(C)C)C(=O)N[C@@H](CCCCN)C(N)=O [Compound 95] (Palmitoyl-LSHSKGHQKRKALK-NH2)

activity at 1 µM [1]: 48.9%
activity at 1 µM [2]: 54.7%
Peak Test Compound (conc 1.0 uM): 1 nM
Peak Ratio (conc 1.0 uM): 0.2
Compound: CCCCCCCCCCCCCCCC(=O)N[C@@H](Cc1cnc[nH]1)C(=O)N[C@@H](CO)C(=O)N[C@@H](CCCCN)C(=O)NCC(=O)N[C@@H](Cc1cnc[nH]1)C(=O)N[C@@H](CCC(N)=O)C(=O)N[C@@H](CCCCN)C(=O)N[C@@H](CCCNC(=N)N)C(=O)N[C@@H](CCCCN)C(=O)N[C@@H](C)C(=O)N[C@@H](CC(C)C)C(=O)N[C@@H](CCCCN)C(=O)N[C@H](C(N)=O)[C@@H](C)O [Compound 97] (Palmitoyl-HSKGHQKRKALKT-NH2)

activity at 1 µM [1]: 45%
activity at 1 µM [2]: 64.5%
Peak Test Compound (conc 1.0 uM): 0.2 nM
Peak Ratio (conc 1.0 uM): 0.2
Compound: CCCCCCCCCCCCCCCC(=O)N[C@@H](Cc1cnc[nH]1)C(=O)N[C@@H](CO)C(=O)N[C@@H](CCCCN)C(=O)NCC(=O)N[C@@H](Cc1cnc[nH]1)C(=O)N[C@@H](CCC(N)=O)C(=O)N[C@@H](CCCCN)C(=O)N[C@@H](CCCNC(=N)N)C(=O)N[C@@H](CCCCN)C(=O)N[C@@H](C)C(=O)N[C@@H](CC(C)C)C(=O)N[C@@H](CCCCN)C(=O)N[C@H](C(=O)N[C@H](C(=O)N[C@H](C(N)=O)C(C)C)[C@@H](C)O)[C@@H](C)O [Compound 99] (Palmitoyl-HSKGHQKRKALKTTV-NH2)

activity at 1 µM [1]: 49.3%
activity at 1 µM [2]: 49.8%
Peak Test Compound (conc 1.0 uM): 0.2 nM
Peak Ratio (conc 1.0 uM): 0.04
Compound: CCCCCCCCCCCCCCCC(=O)N[C@@H](Cc1cnc[nH]1)C(=O)N[C@@H](CO)C(=O)N[C@@H](CCCCN)C(=O)NCC(=O)N[C@@H](Cc1cnc[nH]1)C(=O)N[C@@H](CCC(N)=O)C(=O)N[C@@H](CCCCN)C(=O)N[C@@H](CCCNC(=N)N)C(=O)N[C@@H](CCCCN)C(=O)N[C@@H](C)C(=O)N[C@@H](CC(C)C)C(=O)N[C@@H](CCCCN)C(=O)N[C@H](C(=O)N[C@H](C(=O)N[C@H](C(=O)N[C@H](C(N)=O)[C@@H](C)CC)C(C)C)[C@@H](C)O)[C@@H](C)O [Compound 100] (Palmitoyl-HSKGHQKRKALKTTVI-NH2)

AUC (% of vehicle) (conc 0.01 uM): 171.8 % of vehicle
Max (% of vehicle) (conc 0.01 uM): 156.08 % of vehicle
Peak Test Compound (conc 0.01 uM): 0.16 nM
AUC (% of vehicle) (conc 0.03 uM): 217.53 % of vehicle
Max (% of vehicle) (conc 0.03 uM): 202.16 % of vehicle
Peak Test Compound (conc 0.03 uM): 0.16 nM
AUC (% of vehicle) (conc 0.1 uM): 175.95 % of vehicle
Max (% of vehicle) (conc 0.1 uM): 157.79 % of vehicle
Peak Test Compound (conc 0.1 uM): 0.03 nM
AUC (% of vehicle) (conc 0.3 uM): 129.83 % of vehicle
Max (% of vehicle) (conc 0.3 uM): 113.68 % of vehicle
Peak Test Compound (conc 0.3 uM): 0.16 nM
Peak Test Compound (conc 1.0 uM): 0.16 nM
AUC (% of vehicle) (conc 3.0 uM): 152.75 % of vehicle
Max (% of vehicle) (conc 3.0 uM): 114.49 % of vehicle
Peak Test Compound (conc 3.0 uM): 0.16 nM
Compound: Pal-KLSHSKGHQKRKALKTTV-amide (Palmitoyl-KLSHSKGHQKRKALKTTV-NH2; SMILES CCCCCCCCCCCCCCCC(=O)N[C@@H](CCCCN)C(=O)N[C@@H](CC(C)C)C(=O)N[C@@H](CO)C(=O)N[C@@H](Cc1c[nH]cn1)C(=O)N[C@@H](CO)C(=O)N[C@@H](CCCCN)C(=O)NCC(=O)N[C@@H](Cc1c[nH]cn1)C(=O)N[C@@H](CCC(N)=O)C(=O)N[C@@H](CCCCN)C(=O)N[C@@H](CCCNC(=N)N)C(=O)N[C@@H](CCCCN)C(=O)N[C@@H](C)C(=O)N[C@@H](CC(C)C)C(=O)N[C@@H](CCCCN)C(=O)N[C@H](C(=O)N[C@H](C(=O)N[C@H](C(N)=O)C(C)C)[C@@H](C)O)[C@@H](C)O) [Compound 90]
Max (% of vehicle) (conc 1.0 uM): 131.59 % of vehicle and 76.8 % of vehicle

AUC (% of vehicle) (conc 0.01 uM): 172.33 % of vehicle
Max (% of vehicle) (conc 0.01 uM): 156.08 % of vehicle
Peak Test Compound (conc 0.01 uM): 0.03 nM
AUC (% of vehicle) (conc 0.03 uM): 226.59 % of vehicle
Max (% of vehicle) (conc 0.03 uM): 202.16 % of vehicle
Peak Test Compound (conc 0.03 uM): 0.03 nM
AUC (% of vehicle) (conc 0.1 uM): 183.19 % of vehicle
Max (% of vehicle) (conc 0.1 uM): 157.79 % of vehicle
Peak Test Compound (conc 0.1 uM): 0.03 nM
AUC (% of vehicle) (conc 0.3 uM): 131.2 % of vehicle
Max (% of vehicle) (conc 0.3 uM): 113.68 % of vehicle
AUC (% of vehicle) (conc 1.0 uM): 143.61 % of vehicle
Max (% of vehicle) (conc 1.0 uM): 131.59 % of vehicle
Peak Test Compound (conc 1.0 uM): 0.8 nM
AUC (% of vehicle) (conc 3.0 uM): 116.49 % of vehicle
Max (% of vehicle) (conc 3.0 uM): 114.49 % of vehicle
Peak Test Compound (conc 3.0 uM): 0.8 nM
Compound: Pal-SKLSHSKGHQKRKALKTTVIL-amide (Palmitoyl-SKLSHSKGHQKRKALKTTVIL-NH2; SMILES CCCCCCCCCCCCCCCC(=O)N[C@@H](CO)C(=O)N[C@@H](CCCCN)C(=O)N[C@@H](CC(C)C)C(=O)N[C@@H](CO)C(=O)N[C@@H](Cc1c[nH]cn1)C(=O)N[C@@H](CO)C(=O)N[C@@H](CCCCN)C(=O)NCC(=O)N[C@@H](Cc1c[nH]cn1)C(=O)N[C@@H](CCC(N)=O)C(=O)N[C@@H](CCCCN)C(=O)N[C@@H](CCCNC(=N)N)C(=O)N[C@@H](CCCCN)C(=O)N[C@@H](C)C(=O)N[C@@H](CC(C)C)C(=O)N[C@@H](CCCCN)C(=O)N[C@H](C(=O)N[C@H](C(=O)N[C@H](C(=O)N[C@H](C(=O)N[C@@H](CC(C)C)C(N)=O)[C@@H](C)CC)C(C)C)[C@@H](C)O)[C@@H](C)O) [Compound 88]
positive allosteric modulation of the SDF1-a dependent chemotactic response (RFU) (30 nM of compound): induces a positive SDF1-a mediated chemotactic response
